The experiment concerns the target T1, c-myc-tagged wild-type human APCDD1 (human, UniProt Q8J025 27-514, limits assumed).
T1 construct: Expressed from pCXN2.1 in HEK293T cells; also called c-myc-tagged APCDD1; not shown: C-terminal c-myc tag
In words: immunoprecipitation with anti-c-myc antibody from co-transfected HEK293T cells, western blot with anti-HA. An excerpt:
To examine the 130 KDa fragment, we overexpressed both HA-tagged and c-myc-tagged APCDD1 in HEK293T cells, and performed immunoprecipitation using an anti-c-myc antibody, which was followed by western blot with an anti-HA antibody. […] By contrast, only a faint fragment, 52 KDa in size, was detected in total cell lysate of the L9R mutant construct-transfected cells (FIG. 3C; lane 2, top panel). In addition, a 65 KDa fragment was detected in the medium of the wild-type and the control L9V mutant APCDD1 construct-transfected cells, while no fragment in the medium of the L9R mutant construct-transfected cells (FIG. 3C; lanes 1-3, bottom panel).
Immunoprecipitation. Expression plasmids of HA-tagged APCDD1 and c-myc-tagged APCDD1 (4 μg each) were co-transfected into HEK293T cells as described above. 48 h after the transfection, the cells were harvested and homogenized in lysis buffer (50 mM Tris-HCl (pH 8.0), 150 mM NaCl, 0.5% NP40, and 1× Complete Mini Protease Inhibitor Cocktail). Total cell lysates were collected by centrifugation at 14,000 rpm for 20 min at 4° C. The samples were incubated with 0.3 μg of normal rabbit IgG (Santa Cruz Biotechnology) and 10 μl of protein A/G plus agarose (Santa Cruz) for 30 min at 4° C., and centrifuged at 10,000 rpm for 1 min at 4° C. […]
A general note: In western blotting, separated proteins are transferred to a membrane and probed.

B1: C-terminal HA-tagged wild-type human APCDD1 (SWAMP-HA; pCXN2.1-Wt-SWAMP-HA) (receptor)
chain: not shown
notes: Expressed from pCXN2.1 in HEK293T cells; also called HA-tagged APCDD1; HA-tagged SWAMP; not shown: C-terminal HA (hemagglutinin) tag
With B1, the binding result was “binds”.

For the origin of these results see patent US20120003244A1 (published 2012).
